Test [1] concerns the target human CaV2.2 pore-forming subunit α1B (CACNA1B), wild type (human) (UniProt Q00975).
The target in test [2] is human CaV2.2 α1B D185C (VSD I labelling variant) (human) (UniProt Q00975).
Test [3] has as its target human CaV2.2 α1B N1266C (VSD III labelling variant) (human) (UniProt Q00975).
Test [4] has as its target human CaV2.2 α1B N1580C (VSD IV labelling variant) (human) (UniProt Q00975).

We go through one substance from paper PMC11389781.

With “Gβγ complex of human Gβ1 and Gγ2 (from UniProt P62873 1-340; P59768 1-71)”, the shift of V0.5 of CaV2.2 pore opening toward positive potentials by coexpressed Gβγ (tail currents, cut-open oocyte voltage clamp, 20 ms pulses) in test [1] was 14 mV. For the same substance, in test [2], the shift of V0.5 of VSD I activation by coexpressed Gβγ (voltage-clamp fluorometry, ΔF-V) was 21 mV. The shift of V0.5 of VSD III activation by coexpressed Gβγ (voltage-clamp fluorometry, ΔF-V); VSD III was not modulated by Gβγ in test [3] was -0.1 mV. Moreover, the shift of V0.5 of VSD IV activation by coexpressed Gβγ (voltage-clamp fluorometry, ΔF-V); modest inhibition in test [4] stood at 13 mV.
